The results in this text go back to PMC11335225.

The target of assay [1] is flag-tagged KV7.2 channel subunit (UniProt O43526).
Assay [2] shares this target. The source holds these as a separate data set.

Changes are numbered by the printed parent chain. Names and notes keep the numbering of the source.

Sequence of UniProt O43526 (O43526 whole entry): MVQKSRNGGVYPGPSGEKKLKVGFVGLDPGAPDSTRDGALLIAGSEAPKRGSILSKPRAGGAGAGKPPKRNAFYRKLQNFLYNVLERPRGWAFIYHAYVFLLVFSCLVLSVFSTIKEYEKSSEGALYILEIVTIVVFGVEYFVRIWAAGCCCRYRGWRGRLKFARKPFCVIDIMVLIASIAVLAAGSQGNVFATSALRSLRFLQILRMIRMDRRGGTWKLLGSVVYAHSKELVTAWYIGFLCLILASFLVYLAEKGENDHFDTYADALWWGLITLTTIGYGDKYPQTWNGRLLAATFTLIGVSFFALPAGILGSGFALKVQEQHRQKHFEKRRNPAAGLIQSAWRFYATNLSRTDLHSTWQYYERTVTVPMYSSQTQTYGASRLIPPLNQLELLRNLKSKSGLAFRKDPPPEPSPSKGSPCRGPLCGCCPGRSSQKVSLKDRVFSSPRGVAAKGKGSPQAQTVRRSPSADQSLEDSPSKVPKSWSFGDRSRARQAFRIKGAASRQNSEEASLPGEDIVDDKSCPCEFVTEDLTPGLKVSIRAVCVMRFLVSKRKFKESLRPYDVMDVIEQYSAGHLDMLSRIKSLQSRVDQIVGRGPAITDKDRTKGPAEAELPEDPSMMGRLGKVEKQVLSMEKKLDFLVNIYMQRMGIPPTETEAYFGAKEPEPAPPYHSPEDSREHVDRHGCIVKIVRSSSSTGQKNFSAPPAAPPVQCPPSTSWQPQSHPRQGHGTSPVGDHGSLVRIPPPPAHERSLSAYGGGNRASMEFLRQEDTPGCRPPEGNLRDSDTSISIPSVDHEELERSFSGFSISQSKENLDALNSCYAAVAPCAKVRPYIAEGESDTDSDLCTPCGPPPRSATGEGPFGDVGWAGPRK

In assay [1], “pore-mutated KV8.1(AAA) (from UniProt Q6PIU1 1-500) (natural protein)” showed a steady-state current density at +20 mV (patch clamp) in CHO cells co-transfected with KV8.1(AAA) and wild-type KV7.2 (4:1), relative to both wild-type constructs of 50%. The current amplitude (patch clamp) in CHO cells co-transfected with KV8.1(AAA) and wild-type KV7.2 at a 1:1 ratio, relative to co-transfection of wild-type channels in assay [2] turned out to be 49.4%.

B1: KV8.1 G399R (natural protein)
chain: MPSSGRALLDSPLDSGSLTSLDSSVFCSEGEGEPLALGDCFTVNVGGSRFVLSQQALSCFPHTRLGKLAVVVASYRRPGALAAVPSPLELCDDANPVDNEYFFDRSSQAFRYVLHYYRTGRLHVMEQLCALSFLQEIQYWGIDELSIDSCCRDRYFRRKELSETLDFKKDTEDQESQHESEQDFSQGPCPTVRQKLWNILEKPGSSTAARIFGVISIIFVVVSIINMALMSAELSWLDLQLLEILEYVCISWFTGEFVLRFLCVRDRCRFLRKVPNIIDLLAILPFYITLLVESLSGSQTTQELENVGRIVQVLRLLRALRMLKLGRHSTGLRSLGMTITQCYEEVGLLLLFLSVGISIFSTVEYFAEQSIPDTTFTSVPCAWWWATTSMTTVGYRDIRPDTTTGKIVAFMCILSGILVLALPIAIINDRFSACYFTLKLKEAAVRQREALKKLTKNIATDSYISVNLRDVYARSIMEMLRLKGRERASTRSSGGDDFWF
The molecule B1 yielded a current amplitude (patch clamp) in CHO cells co-transfected with KV8.1 G399R and wild-type KV7.2 (4:1), relative to both wild-type constructs in assay [2] of 54%.

B2: KV8.1 W388G (natural protein)
chain: B1 chain with W385G, R396G
B2 displayed a current amplitude (patch clamp) in CHO cells co-transfected with KV8.1 W388G and wild-type KV7.2 (4:1), relative to both wild-type constructs in assay [2] of 44.1%.
